In test [1] the target is T1, recombinant human PCSK9 protein, His-tagged (Immunogen A, hPCSK9-His) (human, UniProt Q8NBP7 31-692, limits assumed, biotin-labelled in the ELISA and blocking assays (Biotin labeling kit)).
T1 construct: also called human PCSK9-His; recombinant hPCSK9-His; not shown: His tag
Description: ELISA, biotin-hPCSK9-His on streptavidin plate; antibody 0.67 nM. A general note: ELISA stands for enzyme-linked immunosorbent assay.

Test [2] addresses T1, recombinant human PCSK9 protein, …. Description: ELISA, biotin-hPCSK9-His on streptavidin plate; antibody 6.67 nM.
Description: (§1) The next day, the plates were washed twice with wash buffer [0.01% (v/v) Tween 20], then blocked with blocking buffer [0.01% (v/v) 0.1% BSA (w/w) Tween 20] at room temperature for 2 hours. […] Unbound PCSK9 proteins were removed by washing the plate three times with wash buffer [0.01% (v/v) Tween 20]. […] The plates were washed twice with wash buffer [0.01% (v/v) Tween 20], and 200 uL HRP-conjugated secondary antibody (Sigma) was added to each well and incubated for 2 hours at 37° C. After the plates were washed three times with wash buffer, 100 ul TMB substrate were added to each well and incubated for 30 minutes at room temperature. 100 ul stop solution (0.1N HCl) were added to each well to stop the reaction.
Test [3] addresses T2, recombinant cyno monkey PCSK9 protein (cyno monkey, UniProt A8T666 31-692 (rhesus entry), limits assumed, biotin-labelled in the ELISA (Biotin labeling kit)).
T2 construct: also called cyno PCSK9; Cyno Monkey PCSK9-His
As to the kind of experiment: ELISA, biotin-cyno PCSK9 on streptavidin plate; antibody 0.67 nM.
Description: as §1

For test [4], the target named is T2, recombinant cyno monkey PCSK9 protein. Description: ELISA, biotin-cyno PCSK9 on streptavidin plate; antibody 6.67 nM.
Description: as §1
Test [5] has as its target T1, recombinant human PCSK9 protein, …. Description: ELISA, biotin-hPCSK9-His on streptavidin plate; antibody 0.067 nM.
Description: as §1
The target is the same in test [6]. Description: ELISA, biotin-hPCSK9-His on streptavidin plate; antibody 66.67 nM.
Description: as §1
The target in test [7] is T2, recombinant cyno monkey PCSK9 protein. As to the kind of experiment: ELISA, biotin-cyno PCSK9 on streptavidin plate; antibody 0.067 nM.
Description: as §1
Test [8] has the same target. As to the kind of experiment: ELISA, biotin-cyno PCSK9 on streptavidin plate; antibody 66.67 nM.
Description: as §1
Test [9] addresses T1, recombinant human PCSK9 protein, …. Description: ELISA, biotin-hPCSK9-His on streptavidin plate; antibody 0.0067 nM.
Description: as §1
Test [10] has as its target T2, recombinant cyno monkey PCSK9 protein. Description: ELISA, biotin-cyno PCSK9 on streptavidin plate; antibody 0.0067 nM.
Description: as §1
The target of test [11] is T1, recombinant human PCSK9 protein, …. As to the kind of experiment: ELISA, biotin-hPCSK9-His on streptavidin plate; antibody 0.00067 nM.
Description: as §1
In test [12] the target is T2, recombinant cyno monkey PCSK9 protein. Description: ELISA, biotin-cyno PCSK9 on streptavidin plate; antibody 0.00067 nM.
Description: as §1
The target of test [13] is T1, recombinant human PCSK9 protein, …. Description: ELISA, biotin-hPCSK9-His on streptavidin plate; antibody 0.000067 nM.
Description: as §1
Test [14] addresses T2, recombinant cyno monkey PCSK9 protein. As to the kind of experiment: ELISA, biotin-cyno PCSK9 on streptavidin plate; antibody 0.000067 nM.
Description: as §1
The target in test [15] is T1, recombinant human PCSK9 protein, …. Description: ELISA, biotin-hPCSK9-His on streptavidin plate; antibody 0 nM (blank).
Description: as §1
For test [16], the target named is T2, recombinant cyno monkey PCSK9 protein. Description: ELISA, biotin-cyno PCSK9 on streptavidin plate; antibody 0 nM (blank).
Description: as §1
For test [17], the target named is T1, recombinant human PCSK9 protein, …. As to the kind of experiment: blocking ELISA, biotin-hPCSK9-His on coated LDLR ECD-His; antibody 8 nM.
Description: (§2) Purified LDLR^ECD-His was diluted with PBS to a final concentration of 1.0 ug/ml, and 100 uL of diluted LDLR^ECD-His were added to each well of 96-well plate that was then sealed with plastic film and incubated at 4° C. overnight. The plate was washed twice with wash buffer [PBS+0.01% (v/v) Tween 20] and incubated with blocking buffer [PBS+0.01% (v/v) BSA+1% Tween20 (w/w)] at room temperature for 2 hours. […] The plate was washed three times with wash buffer [0.01% (v/v) Tween 20]. 100 uL HRP-conjugated streptavidin (Sigma) were then added to each well and incubated at 37° C. for 1 hour. The plate was then washed three times with wash buffer, and 100 uL TMB substrate were added to each well. After 15 minutes of incubation at room temperature, the reaction was stopped by adding 50 uL stop solution (0.1N HCl).
Test [18] has the same target. Description: blocking ELISA, biotin-hPCSK9-His on coated LDLR ECD-His; antibody 40 nM.
Description: as §2
Test [19] shares this target. As to the kind of experiment: blocking ELISA, biotin-hPCSK9-His on coated LDLR ECD-His; antibody 1.6 nM.
Description: as §2
The target is the same in test [20]. As to the kind of experiment: blocking ELISA, biotin-hPCSK9-His on coated LDLR ECD-His; antibody 200 nM.
Description: as §2
Test [21] shares this target. As to the kind of experiment: blocking ELISA, biotin-hPCSK9-His on coated LDLR ECD-His; antibody 0.01 nM.
Description: as §2
For test [22] the target is unchanged. As to the kind of experiment: blocking ELISA, biotin-hPCSK9-His on coated LDLR ECD-His; antibody 0.06 nM.
Description: as §2
Test [23] shares this target. Description: blocking ELISA, biotin-hPCSK9-His on coated LDLR ECD-His; antibody 0.32 nM.
Description: as §2

T2 sequence (A8T666 31-692 limits assumed): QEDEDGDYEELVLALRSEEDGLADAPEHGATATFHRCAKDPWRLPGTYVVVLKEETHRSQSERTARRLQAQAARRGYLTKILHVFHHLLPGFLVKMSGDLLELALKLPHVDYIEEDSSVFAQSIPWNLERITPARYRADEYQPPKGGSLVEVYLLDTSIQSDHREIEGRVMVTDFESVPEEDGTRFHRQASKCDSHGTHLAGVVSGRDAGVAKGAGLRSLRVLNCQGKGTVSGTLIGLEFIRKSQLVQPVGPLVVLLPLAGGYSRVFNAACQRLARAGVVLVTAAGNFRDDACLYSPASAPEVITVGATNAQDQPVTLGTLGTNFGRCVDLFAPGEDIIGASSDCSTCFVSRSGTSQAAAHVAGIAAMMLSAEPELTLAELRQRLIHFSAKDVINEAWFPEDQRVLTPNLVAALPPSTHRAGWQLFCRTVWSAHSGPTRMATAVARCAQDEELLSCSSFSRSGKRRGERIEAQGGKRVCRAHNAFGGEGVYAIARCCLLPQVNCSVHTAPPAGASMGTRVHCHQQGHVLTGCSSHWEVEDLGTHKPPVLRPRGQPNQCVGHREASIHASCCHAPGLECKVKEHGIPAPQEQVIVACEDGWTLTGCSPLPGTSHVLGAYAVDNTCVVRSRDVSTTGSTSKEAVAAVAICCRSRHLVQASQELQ

B1: 139G1C5, chimeric anti-PCSK9 mAb purified from hybridoma (antibody, V domains shown)
VH: QVQLQESGPGLVKPSGTLSLTCAVSGGSISRNNWWSWVRQPPGKGLEWIGEIYHSGSTNYNPSLKSRVTISVDKSKNQFSLKLSSVTAADTAVYYCARDLLGIGLDYWGQGTLVTVSS
VL: EFVLTQSPATLSLSPGERAILSCRASQSFSSYIAWYQQKPGQAPRLLIYDASNRATGIPARFSGSGSGTDFTLTISSLEPEDFAVYYCQQHSNWMYTFGQGTKLEIK
notes: From Harbour H2L2 mice: human variable regions, rat constant regions
B1: the OD450 nm in test [1] is 2.87 OD450 nm; in test [2] it was 2.94 OD450 nm; in [3], 2.67 OD450 nm; in [4], 2.88 OD450 nm; in test [5] it was 1.55 OD450 nm; in [6], 2.93 OD450 nm. For the same molecule, the OD450 nm in [7] was determined as 1 OD450 nm; in test [8], 2.9 OD450 nm; in test [9] it was 0.36 OD450 nm; in test [10] it was 0.27 OD450 nm; in test [11], 0.21 OD450 nm; in test [12] it was 0.26 OD450 nm. For the same molecule, the OD450 nm stood at 0.19 OD450 nm in test [13], 0.23 OD450 nm in [14], 0.22 OD450 nm in [15] and 0.2 OD450 nm in test [16]. Further, the “OD450 nm (PCSK9 bound to LDLR)” value in test [17] was 0.61 OD450 nm; in [18], 0.67 OD450 nm; in test [19], 0.89 OD450 nm; in test [20], 0.63 OD450 nm; in [21], 1.06 OD450 nm; in [22], 1.13 OD450 nm. Further, the “OD450 nm (PCSK9 bound to LDLR)” value in test [23] came to 1.11 OD450 nm.

B2: 74C10A8, chimeric anti-PCSK9 mAb purified from hybridoma (antibody, V domains shown)
VH: QVQLQESGPGLVKPSETLSLTCSVSGGSINTYYWSWIRQPPGKGLEWIGYIYYSGSTNYNPSLKSRVTISVDTSKNQFSLKLTSVTAADTAVYYCARERFTMVRGVMMDYYYYGMDVWGQGTTVTVSS
VL: DIQLTQSPSFLSASVGDRVTITCRASQGISSYLAWYQQKPGKAPKLLIYAASTLQSGVPSRFSGSGSGTEFTLTISSLQPEDFATYYCQQLNSYPRTFGQGTKVEIK
notes: as for B1
In the case of B2, the OD450 nm stood at 2.89 OD450 nm in [1]; 2.99 OD450 nm in [2]; 2.53 OD450 nm in test [3]; 2.86 OD450 nm in test [4]; 2.98 OD450 nm in [6]; 0.76 OD450 nm in test [7]. Besides, the OD450 nm in test [8] is 2.89 OD450 nm; in [9] it was 0.3 OD450 nm; in test [10] it was 0.27 OD450 nm; in test [11], 0.17 OD450 nm; in test [12], 0.34 OD450 nm; in test [13] it was 0.19 OD450 nm. Also, the OD450 nm was found to be 0.18 OD450 nm in [14], 0.22 OD450 nm in test [15] and 0.21 OD450 nm in test [16]. Also, the “OD450 nm (PCSK9 bound to LDLR)” value in [17] turned out to be 0.78 OD450 nm; in [18], 0.68 OD450 nm; in test [19], 0.97 OD450 nm; in test [20], 0.55 OD450 nm; in test [21], 1.34 OD450 nm; in test [22] it was 1.3 OD450 nm. Moreover, the “OD450 nm (PCSK9 bound to LDLR)” value in test [23] was 1.2 OD450 nm.

B3: 76A1B11, chimeric anti-PCSK9 mAb purified from hybridoma (antibody, V domains shown)
VH: QVQLVESGGGVVQPGRSLRLSCAATGFTFSIYGMHWVRQAPGKGLEWVAVIWYDGSNKYYADSVKGRFIISRDNSKNTLYLQMNSLRVEDTAVYYCVSDYFGSGNSYYYYGMDVWGQGTTVTVSS
VL: DIQMTQSPSSLSASVGDRVTITCRASQVISNYLAWYQQKPGKVPKLLIYTASTLQSGVPSRFSGSGSGADFTLTISSLQPEDVATYYCQKYNSAPYTFGQGTKLEIK
notes: as for B1
On to B3, for which the OD450 nm in test [1] stood at 2.66 OD450 nm; in test [2], 2.85 OD450 nm; in test [3], 2.5 OD450 nm; in test [4] it was 2.82 OD450 nm; in test [5], 0.86 OD450 nm; in test [6] it was 2.85 OD450 nm. For the same molecule, the OD450 nm in [7] is 0.81 OD450 nm; in test [8], 2.88 OD450 nm; in test [9], 0.27 OD450 nm; in test [10], 0.26 OD450 nm; in [11], 0.21 OD450 nm; in test [12] it was 0.23 OD450 nm. The OD450 nm in [13] amounted to 0.2 OD450 nm; in [14], 0.21 OD450 nm; in test [15], 0.18 OD450 nm; in test [16], 0.19 OD450 nm. In addition, the “OD450 nm (PCSK9 bound to LDLR)” value in test [17] turned out to be 0.7 OD450 nm; in test [18], 0.59 OD450 nm; in test [19] it was 0.96 OD450 nm; in test [20] it was 0.55 OD450 nm; in test [21], 1.29 OD450 nm; in test [22], 1.18 OD450 nm. In addition, the “OD450 nm (PCSK9 bound to LDLR)” value in test [23] was found to be 1.19 OD450 nm.
